Measured values from patent US20250382353A1 (published 2025).

What was measured:
Assay in all cases: SPR
[1] = target: rVSV-Delta spike (SARS-CoV-2 Delta, UniProt P0DTC2 14-1252)
[2] = target: SARS-CoV-2 Omicron BA.1 spike (SARS-CoV-2 Omicron BA.1, UniProt P0DTC2 14-1208)
[3] = target: BA.2
[4] = target: rVSV Beta spike (SARS-CoV-2 Beta, UniProt P0DTC2 14-1252)

B1: Fab 2A10 (antibody, V domains shown)
VH: QVQLVESGGGLIQPGGSLRLSCAASEFIVSSNYMSWVRQAPGKGLEWVSLLYSGGTTYYADSVKGRFTISRDNSKNTLFLQMNSLRAEDTAMYYCARDRGPWLHDYWGQGTLVTVS
VL: DIVMTQSPSSLSASVGDRVTITCQASQDINKYCNWYQQKPGKAPKLLIYDASNLETGVPSRFSGSGSGTDFTFTINSLQPEDIATYYCQQYDNLPPTFGGGTKVEIK
Q: With B1 as the binder, how does the Kd [1] read?
A: 0.132 nM

Q: And the Kd [2]?
A: 4.42 nM

B2: Fab 1C3 (Fab, V domains shown)
VH: QVQLLESGGGLVQPGRSLRLSCAASGFTFDDYAMHWVRQPPGKGLEWVSGSSWNSGSVVYADSVKGRFTISRDSAKNSLHLQMNSLRVEDTALYYCAKAVDPTRGSYSPDYGFDIWGQGTMVTVS
VL: not shown
Q: Which Kd [3] does the source give for B2 here?
A: 0.023 nM

B3: 1C3 antigen-binding fragment (Fab) (Fab, V domains shown)
VH: B2 VH
VL: not shown
Q: Which results are given for B3?
A: Kd [1]: 0.036 nM; Kd [4]: 0.039 nM; Kd [2]: 0.041 nM
